# Experimental data as given in patent US20150344570A1 (published 2015).
# B1: GpH7-A5/GpH7-B3 variant S298_16H/GpL16-k0 (antibody, human IgG1, kappa)
# heavy 1: not shown
# heavy 2: not shown
# light: DIVMTQSPLSLPVTPGEPASISCQASESLVHSNRNTYLHWYLQKPGQSPQLLIYKVSNRFSGVPDRFSGSGSGTDFTLKISRVEAEDVGVYYCSQNTHVPPTFGQGTKVEIERTVAAPSVFIFPPSDEQLKSGTASVVCLLNNFYPREAKVQWKVDNALQSGNSQESVTEQDSKDSTYSLSSTLTLSKADYEKHKVYACEVTHQGLSSPVTKSFNRGEC
# notes: heterodimerized IgG1, mutation in one H chain; also called He Ab
# B2: GpH7-A5/GpH7-B3 variant S298_18N/GpL16-k0 (antibody, human IgG1, kappa)
# heavy 1: not shown
# heavy 2: not shown
# light: B1 light
# notes: as for B1
# B3: GpH7-A5/GpH7-B3 variant S298_19Q/GpL16-k0 (antibody, human IgG1, kappa)
# heavy 1: not shown
# heavy 2: not shown
# light: B1 light
# notes: as for B1
# B4: GpH7-A5/GpH7-B3 variant S324_02A/GpL16-k0 (antibody, human IgG1, kappa)
# heavy 1: not shown
# heavy 2: not shown
# light: B1 light
# notes: as for B1
# B5: GpH7-A5/GpH7-B3 variant S324_03V/GpL16-k0 (antibody, human IgG1, kappa)
# heavy 1: not shown
# heavy 2: not shown
# light: B1 light
# notes: as for B1
# B6: GpH7-A5/GpH7-B3 variant S324_08L/GpL16-k0 (antibody, human IgG1, kappa)
# heavy 1: not shown
# heavy 2: not shown
# light: B1 light
# notes: as for B1
# B7: GpH7-A5/GpH7-B3 variant S324_14T/GpL16-k0 (antibody, human IgG1, kappa)
# heavy 1: not shown
# heavy 2: not shown
# light: B1 light
# notes: as for B1
# B8: GpH7-A5/GpH7-B3 variant S324_19Q/GpL16-k0 (antibody, human IgG1, kappa)
# heavy 1: not shown
# heavy 2: not shown
# light: B1 light
# notes: as for B1
# B9: GpH7-A5/GpH7-B3 variant S324_20W/GpL16-k0 (antibody, human IgG1, kappa)
# heavy 1: not shown
# heavy 2: not shown
# light: B1 light
# notes: as for B1
# B10: GpH7-A5/GpH7-B3 variant S337_01G/GpL16-k0 (antibody, human IgG1, kappa)
# heavy 1: not shown
# heavy 2: not shown
# light: B1 light
# notes: as for B1
# B11: GpH7-A5/GpH7-B3 variant S337_02A/GpL16-k0 (antibody, human IgG1, kappa)
# heavy 1: not shown
# heavy 2: not shown
# light: B1 light
# notes: as for B1
# B12: GpH7-A5/GpH7-B3 variant S337_03V/GpL16-k0 (antibody, human IgG1, kappa)
# heavy 1: not shown
# heavy 2: not shown
# light: B1 light
# notes: as for B1
# B13: GpH7-A5/GpH7-B3 variant G237_05P/GpL16-k0 (antibody, human IgG1, kappa)
# heavy 1: not shown
# heavy 2: not shown
# light: B1 light
# notes: Heterodimerized antibody, alteration in one H chain only; also called He Ab G237P
# B14: GpH7-A5/GpH7-B3 variant H268_01G/GpL16-k0 (antibody, human IgG1, kappa)
# heavy 1: not shown
# heavy 2: not shown
# light: B1 light
# notes: Heterodimerized antibody, alteration in one H chain only; also called He Ab H268G
# B15: GpH7-A5/GpH7-B3 variant H268_03V/GpL16-k0 (antibody, human IgG1, kappa)
# heavy 1: not shown
# heavy 2: not shown
# light: B1 light
# notes: Heterodimerized antibody, alteration in one H chain only; also called He Ab H268V
# B16: GpH7-A5/GpH7-B3 variant H268_05P/GpL16-k0 (antibody, human IgG1, kappa)
# heavy 1: not shown
# heavy 2: not shown
# light: B1 light
# notes: Heterodimerized antibody, alteration in one H chain only; also called He Ab H268P
# B17: GpH7-A5/GpH7-B3 variant H268_20W/GpL16-k0 (antibody, human IgG1, kappa)
# heavy 1: not shown
# heavy 2: not shown
# light: B1 light
# notes: Heterodimerized antibody, alteration in one H chain only; also called He Ab H268W
# B18: GpH7-A5/GpH7-B3 variant K326_03V/GpL16-k0 (antibody, human IgG1, kappa)
# heavy 1: not shown
# heavy 2: not shown
# light: B1 light
# notes: Heterodimerized antibody, alteration in one H chain only; also called He Ab K326V
# B19: GpH7-A5/GpH7-B3 variant K326_04F/GpL16-k0 (antibody, human IgG1, kappa)
# heavy 1: not shown
# heavy 2: not shown
# light: B1 light
# notes: Heterodimerized antibody, alteration in one H chain only; also called He Ab K326F
# B20: GpH7-A5/GpH7-B3 variant K326_05P/GpL16-k0 (antibody, human IgG1, kappa)
# heavy 1: not shown
# heavy 2: not shown
# light: B1 light
# notes: Heterodimerized antibody, alteration in one H chain only; also called He Ab K326P
# B21: GpH7-A5/GpH7-B3 variant K326_08L/GpL16-k0 (antibody, human IgG1, kappa)
# heavy 1: not shown
# heavy 2: not shown
# light: B1 light
# notes: Heterodimerized antibody, alteration in one H chain only; also called He Ab K326L
# B22: GpH7-A5/GpH7-B3 variant P238_08L/GpL16-k0 (antibody, human IgG1, kappa)
# heavy 1: not shown
# heavy 2: not shown
# light: B1 light
# notes: Heterodimerized antibody, alteration in one H chain only; also called He Ab P238L
# B23: GpH7-A5/GpH7-B3 variant P238_09D/GpL16-k0 (antibody, human IgG1, kappa)
# heavy 1: not shown
# heavy 2: not shown
# light: B1 light
# notes: Heterodimerized antibody, alteration in one H chain only; also called He Ab P238D
# B24: GpH7-A5/GpH7-B3 variant P238_10E/GpL16-k0 (antibody, human IgG1, kappa)
# heavy 1: not shown
# heavy 2: not shown
# light: B1 light
# notes: Heterodimerized antibody, alteration in one H chain only; also called He Ab P238E
# Target: T1, FcγRIa (human, UniProt P12314 16-292)
# T1 construct: extracellular domain; soluble extracellular domain with C-terminal His tag, expressed in FreeStyle293 cells; also called FcgRI; FcgRIa
# T1 sequence (P12314 16-292): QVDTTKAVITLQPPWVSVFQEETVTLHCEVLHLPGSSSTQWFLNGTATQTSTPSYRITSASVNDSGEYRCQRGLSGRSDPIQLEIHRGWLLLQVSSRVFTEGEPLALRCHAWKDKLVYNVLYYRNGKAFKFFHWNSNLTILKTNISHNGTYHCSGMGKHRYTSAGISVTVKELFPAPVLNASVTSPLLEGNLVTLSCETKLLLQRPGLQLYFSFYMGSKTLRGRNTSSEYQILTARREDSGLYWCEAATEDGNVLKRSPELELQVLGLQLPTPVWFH
# Assay: SPR (Biacore), captured antibody, FcγRIa analyte; relative to HeCon Ab GpH7-A5/GpH7-B3/GpL16-k0 = 100
row,Binder,He/Con_1a
1,B1,109 % of control
2,B2,108 % of control
3,B3,109 % of control
4,B4,103 % of control
5,B5,104 % of control
6,B6,103 % of control
7,B7,121 % of control
8,B8,112 % of control
9,B9,114 % of control
10,B10,107 % of control
11,B11,106 % of control
12,B12,107 % of control

# Target: T2, FcγRIIb (human, UniProt P31994 43-217)
# T2 construct: extracellular domain; also called FcgRIIb; 2b
# T2 sequence (looked up): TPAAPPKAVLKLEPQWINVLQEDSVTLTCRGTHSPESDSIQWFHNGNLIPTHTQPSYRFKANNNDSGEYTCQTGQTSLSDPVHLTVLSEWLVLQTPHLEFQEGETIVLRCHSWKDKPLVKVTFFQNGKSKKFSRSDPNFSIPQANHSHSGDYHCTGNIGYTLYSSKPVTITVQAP
# Assay: SPR (Biacore), antibody captured, FcγR analyte; binding relative to GpH7-A5/GpH7-B3/GpL16-k0 = 100
row,Binder,He/Con_2b
1,B13,24.6 % of control
2,B14,144 % of control
3,B15,114 % of control
4,B16,116 % of control
5,B17,111 % of control
6,B18,175 % of control
7,B19,155 % of control
8,B20,126 % of control
9,B21,177 % of control
10,B22,204 % of control
11,B23,221 % of control
12,B24,232 % of control

# Target: T3, FcγRIIa H (human, UniProt P12318 34-217)
# T3 construct: extracellular domain; also called FcgRIIa H; FcγRIIa type H
# T3 sequence (looked up): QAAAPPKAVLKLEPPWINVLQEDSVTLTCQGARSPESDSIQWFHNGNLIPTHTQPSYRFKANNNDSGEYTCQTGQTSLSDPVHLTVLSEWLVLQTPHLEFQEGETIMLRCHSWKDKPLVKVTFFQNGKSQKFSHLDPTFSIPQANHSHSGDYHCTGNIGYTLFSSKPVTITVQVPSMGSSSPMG
# Assay: as above
row,Binder,He/Con_2aH
1,B14,99.2 % of control
2,B15,99.2 % of control
3,B16,81.8 % of control
4,B17,95.8 % of control
5,B18,97 % of control
6,B19,97 % of control
7,B20,98.8 % of control
8,B21,92.7 % of control
9,B22,84.6 % of control
10,B23,87.5 % of control
11,B24,77.1 % of control
